Measured values reported in US20140105889A1 (published 2014).
Changes are numbered by the printed parent chain. Blank lines part the entries; values can stand above or below the binder they belong to.

Legend:
human FcγRIIIa type V = biological target: T1, human FcγRIIIa type V (human, UniProt P08637 17-208, limits assumed); assay: SPR (Biacore), FcγR over captured antibody; binding amount / that of IL6R-BF648/IL6R-L x100
T1 construct: Allotype V158 was used; also called FcgRIIIaV; FcγRIIIa(V)
Description: (§1) According to the following method, relative binding activities were calculated for the results of analyzing interactions with the respective FcγRs.

human FcγRIIb [1] = biological target: T2, human FcγRIIb (human, UniProt P31994 43-217); assay: as above
T2 construct: also called FcgRIIb; FcγIIB
T2 sequence: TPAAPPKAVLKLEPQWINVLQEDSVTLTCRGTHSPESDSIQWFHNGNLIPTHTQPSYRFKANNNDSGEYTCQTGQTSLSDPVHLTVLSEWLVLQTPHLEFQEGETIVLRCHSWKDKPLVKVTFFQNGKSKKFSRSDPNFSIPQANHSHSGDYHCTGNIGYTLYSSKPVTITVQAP
Description: as §1

human FcγRIIa type H [2] = biological target: T3, human FcγRIIa type H (human, UniProt P12318 36-217); assay: as above
T3 construct: also called FcgRIIaH; FcγRIIa(H)
T3 sequence: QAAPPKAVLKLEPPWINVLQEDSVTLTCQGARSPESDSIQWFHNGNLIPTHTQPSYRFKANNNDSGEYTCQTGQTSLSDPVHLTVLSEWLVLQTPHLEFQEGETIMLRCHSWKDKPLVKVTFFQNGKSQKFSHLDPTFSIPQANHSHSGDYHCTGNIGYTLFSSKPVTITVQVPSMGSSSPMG
Description: as §1

human FcγRIIa type R = biological target: T4, human FcγRIIa type R (human, UniProt P12318 36-217); assay: as above
T4 construct: also called FcgRIIaR; FcγRIIa(R)
T4 chain: T3 sequence with H133R
Description: as §1

human FcγRIa [3] = biological target: T5, human FcγRIa (human, UniProt P12314 16-292, limits assumed); assay: as above
T5 construct: also called FcgRIa; CD64
T5 sequence (P12314 16-292 limits assumed): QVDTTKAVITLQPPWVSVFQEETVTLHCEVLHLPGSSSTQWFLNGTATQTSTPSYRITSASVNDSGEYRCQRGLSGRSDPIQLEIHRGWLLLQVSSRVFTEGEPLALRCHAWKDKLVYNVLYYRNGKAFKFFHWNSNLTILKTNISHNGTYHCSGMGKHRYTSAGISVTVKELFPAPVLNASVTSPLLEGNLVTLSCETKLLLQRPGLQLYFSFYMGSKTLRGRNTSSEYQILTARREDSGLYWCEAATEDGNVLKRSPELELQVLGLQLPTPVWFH
Description: as §1

human FcγRIIb [4] = biological target: T6, human FcγRIIb (human, UniProt P31994 43-217, limits assumed); assay: SPR (Biacore); binding amount divided by that of control IL6R-BF648/IL6R-L, x100
T6 construct: also called FcgRIIb; FcγIIB
T6 sequence: T2 sequence
Description: as §1

human FcγRIa [5] = biological target: T7, human FcγRIa (human, UniProt P12314 16-292, limits assumed); assay: as above
T7 construct: also called FcgRIa; CD64
T7 sequence (P12314 16-292 limits assumed): as above
Description: as §1

human FcγRIIa type H [6] = biological target: T8, human FcγRIIa type H (human, UniProt P12318 36-217); assay: as above
T8 construct: also called FcgRIIaH; FcγRIIa(H)
T8 sequence: T3 sequence
Description: as §1

T1 sequence (P08637 other isoform, or with tags, fused parts or gaps limits assumed): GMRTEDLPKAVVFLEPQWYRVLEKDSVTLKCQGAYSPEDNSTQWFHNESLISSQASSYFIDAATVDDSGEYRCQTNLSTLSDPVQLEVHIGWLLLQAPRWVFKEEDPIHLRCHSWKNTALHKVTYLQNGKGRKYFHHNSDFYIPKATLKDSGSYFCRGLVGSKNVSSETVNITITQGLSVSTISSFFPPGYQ

relative binding activity (human FcγRIIb [4]): 188 % of IL6R-BF648/IL6R-L
relative binding activity (human FcγRIa [5]): 60 % of IL6R-BF648/IL6R-L
relative binding activity (human FcγRIIa type H [6]): 517 % of IL6R-BF648/IL6R-L
B3: IL6R-BP200/IL6R-L (antibody)
heavy: QVQLQESGPGLVKPSETLSLTCAVSGHSISHDHAWSWVRQPPGEGLEWIGFISYSGITNYNPSLQGRVTISRDNSKNTLYLQMNSLRAEDTAVYYCARSLARTTAMDYWGEGTLVTVSSASTKGPSVFPLAPSSKSTSGGTAALGCLVKDYFPEPVTVSWNSGALTSGVHTFPAVLQSSGLYSLSSVVTVPSSSLGTQTYICNVNHKPSNTKVDKKVEPKSCDKTHTCPPCPAPDYLGDDSVFLFPPKPKDTLMISRTPEVTCVVVDVSHEDGEVKFNWYVDGVEVHNAKTKPREEQYNSTYRVVSVLTVLHQDWLNGKEYKCKVSNDALPRPIEKTISKAKGQPREPQVYTLPPSRDELTKNQVSLTCLVKGFYPSDIAVEWESNGQPENNYKTTPPVLDSDGSFFLYSKLTVDKSRWQQGNVFSCSVMHEALHNHYTQESLSLSP
light: DIQMTQSPSSLSASVGDRVTITCRASQDISSYLNWYQQKPGKAPKLLIYYTSRLHSGVPSRFSGSGSGTDFTFTISSLQPEDIATYYCQQGNTLPYTFGQGTKVEIK
notes: copies: 2 + 2

relative binding activity (human FcγRIIb [4]): 185 % of IL6R-BF648/IL6R-L
relative binding activity (human FcγRIa [5]): 43 % of IL6R-BF648/IL6R-L
relative binding activity (human FcγRIIa type H [6]): 285 % of IL6R-BF648/IL6R-L
B4: IL6R-BP202/IL6R-L (antibody, human IgG1)
heavy: B3 heavy with D235E, Y236L, D328A
light: B3 light
notes: The common L chain is IL6R-L; copies: 2 + 2

relative binding activity (human FcγRIIb [4]): 173 % of IL6R-BF648/IL6R-L
relative binding activity (human FcγRIa [5]): 113 % of IL6R-BF648/IL6R-L
relative binding activity (human FcγRIIa type H [6]): 154 % of IL6R-BF648/IL6R-L
B5: IL6R-BP193/IL6R-L (antibody, human IgG1)
heavy: B3 heavy with Y236L, D239G, H270D, D328K, R332K
light: B3 light
notes: as for B4

relative binding activity (human FcγRIIIa type V): 143 % of IL6R-BF648/IL6R-L
relative binding activity (human FcγRIIb [1]): 175 % of IL6R-BF648/IL6R-L
relative binding activity (human FcγRIIa type H [2]): 368 % of IL6R-BF648/IL6R-L
relative binding activity (human FcγRIIa type R): 614 % of IL6R-BF648/IL6R-L
relative binding activity (human FcγRIa [3]): 43 % of IL6R-BF648/IL6R-L
B6: IL6R-BP186/IL6R-L (antibody, human IgG1)
heavy: B3 heavy with Y298D, D328A, R332K
light: B3 light

relative binding activity (human FcγRIIb [4]): 186 % of IL6R-BF648/IL6R-L
relative binding activity (human FcγRIa [5]): 57 % of IL6R-BF648/IL6R-L
relative binding activity (human FcγRIIa type H [6]): 359 % of IL6R-BF648/IL6R-L
B10: IL6R-BP201/IL6R-L (antibody, human IgG1)
heavy: B3 heavy with Y236L, D328K
light: B3 light
notes: as for B4

relative binding activity (human FcγRIIb [4]): 179 % of IL6R-BF648/IL6R-L
relative binding activity (human FcγRIa [5]): 74 % of IL6R-BF648/IL6R-L
B12: IL6R-BP188/IL6R-L (antibody, human IgG1)
heavy: B3 heavy with Y236L, H270D, D328K, R332K
light: B3 light
notes: as for B4

relative binding activity (human FcγRIIIa type V): 3350 % of IL6R-BF648/IL6R-L
relative binding activity (human FcγRIIb [1]): 62 % of IL6R-BF648/IL6R-L
relative binding activity (human FcγRIIa type H [2]): 1670 % of IL6R-BF648/IL6R-L
relative binding activity (human FcγRIIa type R): 650 % of IL6R-BF648/IL6R-L
relative binding activity (human FcγRIa [3]): 140 % of IL6R-BF648/IL6R-L
B16: IL6R-G1d/IL6R-L (antibody, human IgG1)
heavy: not shown
light: B3 light
notes: also called IgG1

Second part, the binder before the results:

B1: IL6R-BP144/IL6R-L (antibody, human IgG1)
heavy: B3 heavy with D235E, Y236L, G273P, D328A, R332A
light: B3 light
relative binding activity (human FcγRIIIa type V): 128 % of IL6R-BF648/IL6R-L
relative binding activity (human FcγRIIb [1]): 121 % of IL6R-BF648/IL6R-L
relative binding activity (human FcγRIIa type H [2]): 108 % of IL6R-BF648/IL6R-L
relative binding activity (human FcγRIIa type R): 204 % of IL6R-BF648/IL6R-L
relative binding activity (human FcγRIa [3]): 64 % of IL6R-BF648/IL6R-L

B2: IL6R-BP184/IL6R-L (antibody, human IgG1)
heavy: B3 heavy with Y236L, D239G, D328K, R332K
light: B3 light
relative binding activity (human FcγRIIIa type V): 106 % of IL6R-BF648/IL6R-L
relative binding activity (human FcγRIIb [1]): 171 % of IL6R-BF648/IL6R-L
relative binding activity (human FcγRIIa type H [2]): 131 % of IL6R-BF648/IL6R-L
relative binding activity (human FcγRIIa type R): 436 % of IL6R-BF648/IL6R-L
relative binding activity (human FcγRIa [3]): 96 % of IL6R-BF648/IL6R-L

B7: IL6R-BP145/IL6R-L (antibody, human IgG1)
heavy: B3 heavy with D235E, G273P, D328K, R332A
light: B3 light
relative binding activity (human FcγRIIIa type V): 153 % of IL6R-BF648/IL6R-L
relative binding activity (human FcγRIIb [1]): 152 % of IL6R-BF648/IL6R-L
relative binding activity (human FcγRIIa type H [2]): 224 % of IL6R-BF648/IL6R-L
relative binding activity (human FcγRIIa type R): 350 % of IL6R-BF648/IL6R-L
relative binding activity (human FcγRIa [3]): 41 % of IL6R-BF648/IL6R-L

B8: IL6R-BP177/IL6R-L (antibody, human IgG1)
heavy: B3 heavy with R332K
light: B3 light
relative binding activity (human FcγRIIIa type V): 186 % of IL6R-BF648/IL6R-L
relative binding activity (human FcγRIIb [1]): 177 % of IL6R-BF648/IL6R-L
relative binding activity (human FcγRIIa type H [2]): 409 % of IL6R-BF648/IL6R-L
relative binding activity (human FcγRIIa type R): 691 % of IL6R-BF648/IL6R-L
relative binding activity (human FcγRIa [3]): 57 % of IL6R-BF648/IL6R-L

B9: IL6R-BP148/IL6R-L (antibody, human IgG1)
heavy: B3 heavy with G273P, D328A, R332K
light: B3 light
relative binding activity (human FcγRIIIa type V): 227 % of IL6R-BF648/IL6R-L
relative binding activity (human FcγRIIb [1]): 176 % of IL6R-BF648/IL6R-L
relative binding activity (human FcγRIIa type H [2]): 462 % of IL6R-BF648/IL6R-L
relative binding activity (human FcγRIIa type R): 603 % of IL6R-BF648/IL6R-L
relative binding activity (human FcγRIa [3]): 33 % of IL6R-BF648/IL6R-L

B11: IL6R-BP185/IL6R-L (antibody, human IgG1)
heavy: B3 heavy with D328A, R332K
light: B3 light
relative binding activity (human FcγRIIIa type V): 191 % of IL6R-BF648/IL6R-L
relative binding activity (human FcγRIIb [1]): 179 % of IL6R-BF648/IL6R-L
relative binding activity (human FcγRIIa type H [2]): 446 % of IL6R-BF648/IL6R-L
relative binding activity (human FcγRIIa type R): 670 % of IL6R-BF648/IL6R-L
relative binding activity (human FcγRIa [3]): 47 % of IL6R-BF648/IL6R-L

B13: IL6R-BP150/IL6R-L (antibody, human IgG1)
heavy: B3 heavy with D235E, G273P, D328A
light: B3 light
relative binding activity (human FcγRIIIa type V): 204 % of IL6R-BF648/IL6R-L
relative binding activity (human FcγRIIb [1]): 183 % of IL6R-BF648/IL6R-L
relative binding activity (human FcγRIIa type H [2]): 770 % of IL6R-BF648/IL6R-L
relative binding activity (human FcγRIIa type R): 757 % of IL6R-BF648/IL6R-L
relative binding activity (human FcγRIa [3]): 30 % of IL6R-BF648/IL6R-L

B14: IL6R-BP149/IL6R-L (antibody, human IgG1)
heavy: B3 heavy with G273P, Y298D, D328A, R332K
light: B3 light
relative binding activity (human FcγRIIIa type V): 186 % of IL6R-BF648/IL6R-L
relative binding activity (human FcγRIIb [1]): 173 % of IL6R-BF648/IL6R-L
relative binding activity (human FcγRIIa type H [2]): 401 % of IL6R-BF648/IL6R-L
relative binding activity (human FcγRIIa type R): 539 % of IL6R-BF648/IL6R-L
relative binding activity (human FcγRIa [3]): 29 % of IL6R-BF648/IL6R-L

B15: IL6R-BP180/IL6R-L (antibody, human IgG1)
heavy: B3 heavy with D235E, Y236L, D328K, R332K
light: B3 light
relative binding activity (human FcγRIIIa type V): 100 % of IL6R-BF648/IL6R-L
relative binding activity (human FcγRIIb [1]): 179 % of IL6R-BF648/IL6R-L
relative binding activity (human FcγRIIa type H [2]): 203 % of IL6R-BF648/IL6R-L
relative binding activity (human FcγRIIa type R): 602 % of IL6R-BF648/IL6R-L
relative binding activity (human FcγRIa [3]): 29 % of IL6R-BF648/IL6R-L

B17: IL6R-BP179/IL6R-L (antibody, human IgG1)
heavy: B3 heavy with D235E, Y236L, D328A, R332K
light: B3 light
relative binding activity (human FcγRIIIa type V): 125 % of IL6R-BF648/IL6R-L
relative binding activity (human FcγRIIb [1]): 177 % of IL6R-BF648/IL6R-L
relative binding activity (human FcγRIIa type H [2]): 226 % of IL6R-BF648/IL6R-L
relative binding activity (human FcγRIIa type R): 570 % of IL6R-BF648/IL6R-L
relative binding activity (human FcγRIa [3]): 39 % of IL6R-BF648/IL6R-L

B18: IL6R-BP183/IL6R-L (antibody, human IgG1)
heavy: B3 heavy with D239G, D328A, R332K
light: B3 light
relative binding activity (human FcγRIIIa type V): 113 % of IL6R-BF648/IL6R-L
relative binding activity (human FcγRIIb [1]): 164 % of IL6R-BF648/IL6R-L
relative binding activity (human FcγRIIa type H [2]): 191 % of IL6R-BF648/IL6R-L
relative binding activity (human FcγRIIa type R): 423 % of IL6R-BF648/IL6R-L
relative binding activity (human FcγRIa [3]): 83 % of IL6R-BF648/IL6R-L
